Read-outs that look alike come from different tables or passages of the source.

Experiment [1] addresses T1, GST-GSK3β (UniProt P49841 1-420). The experiment can be described thus: pull-down.
Experiment [2] deals with T1, GST-GSK3β. The experiment can be described thus: pull-down. The source holds these as a separate data set.

T1 sequence (P49841 whole entry): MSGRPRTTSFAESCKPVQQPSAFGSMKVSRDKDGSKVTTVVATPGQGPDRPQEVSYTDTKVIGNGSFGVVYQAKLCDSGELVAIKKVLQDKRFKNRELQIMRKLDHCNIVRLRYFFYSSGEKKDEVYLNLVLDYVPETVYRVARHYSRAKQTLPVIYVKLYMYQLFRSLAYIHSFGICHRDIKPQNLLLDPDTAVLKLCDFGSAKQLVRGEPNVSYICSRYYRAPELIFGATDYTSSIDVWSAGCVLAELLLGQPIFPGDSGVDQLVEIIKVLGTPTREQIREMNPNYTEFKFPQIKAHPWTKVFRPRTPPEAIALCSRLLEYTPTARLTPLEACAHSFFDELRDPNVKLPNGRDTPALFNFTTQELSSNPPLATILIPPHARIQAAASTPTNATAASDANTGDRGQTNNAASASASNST

In the case of RLLFQNLWKPRL [peptide e2-I], the binding result in experiment [1] is given as “binds”.

B1: His-eIF4E2 (natural protein, UniProt O60573 1-245, looked up)
chain: MNNKFDALKDDDSGDHDQNEENSTQKDGEKEKTERDKNQSSSKRKAVVPGPAEHPLQYNYTFWYSRRTPGRPTSSQSYEQNIKQIGTFASVEQFWRFYSHMVRPGDLTGHSDFHLFKEGIKPMWEDDANKNGGKWIIRLRKGLASRCWENLILAMLGEQFMVGEEICGAVVSVRFQEDIISIWNKTASDQATTARIRDTLRRVLNLPPNTIMEYKTHTDSIKMPGRLGPQRLLFQNLWKPRLNVP
With B1, the binding result in experiment [2] is given as “binds”.

Source of the values: publication doi:10.1101/2020.10.20.346569 (bioRxiv, 2020).
